Bridges are numbered along the chain shown (N, C = ends). Where no end group is shown, it is not given here.
Target: T1, integrin α4 β1 binding to VCAM-1 (Homo sapiens, UniProt P05556+P13612)
T1 construct: endogenous in cells; host or cells: HL-60 cells (integrin α4β1); VCAM-IgG fusion made in house in transfected COS cells
Assay: VCAM-1/α4 β1 Binding Assay (binding of labeled HL-60 cells to VCAM-IgG fusion protein on magnetic beads)
Format: cell-based
Conditions: 10 min at room temperature
Procedure: Peptides were assayed for their ability to inhibit the binding of the integrin α4 β1 to VCAM. […] The assays are described below.
VCAM-1/α4 β1 Binding Assay
The assay involves determining the ability of cells that express α4 β1 to bind directly to purified VCAM. The integrin-expressing cell type used in this assay was HL-60, a human promyelocytic line.
An expression vector was designed such that a region of VCAM known to bind the integrin was expressed as a fusion protein with mouse IgG. A cDNA containing the two N-terminal domains of human VCAM was generated by the polymerase chain reaction (PCR) from a full length VCAM cDNA. Similarly, a cDNA containing the hinge, CH2 and CH3 regions of mouse IgG, was amplified by PCR from cDNA made from total RNA isolated from the hybridoma cell line 402C10. […]
HL-60 cells were fluorescently labeled with Calcein AM C-3099 (Molecular Probes) and resuspended in 1 ml of binding buffer (Hank's balanced salt solution, pH 7.4, 1.0 mM CaCl2, 1.0 mM MgCl2). […] The remaining bound cells were lysed in 50 mM Tris, pH 7.4, 5.0 mM EDTA, 1.0% NP-40 and quantitated by fluorimetry using a Millipore Cytofluor 2350 fluorimeter. Dose response curves were calculated and IC50 values determined. Alternatively, the percent adhesion was determined at a single peptide concentration for comparison among peptides.

T1 sequence (P13612 34-1032): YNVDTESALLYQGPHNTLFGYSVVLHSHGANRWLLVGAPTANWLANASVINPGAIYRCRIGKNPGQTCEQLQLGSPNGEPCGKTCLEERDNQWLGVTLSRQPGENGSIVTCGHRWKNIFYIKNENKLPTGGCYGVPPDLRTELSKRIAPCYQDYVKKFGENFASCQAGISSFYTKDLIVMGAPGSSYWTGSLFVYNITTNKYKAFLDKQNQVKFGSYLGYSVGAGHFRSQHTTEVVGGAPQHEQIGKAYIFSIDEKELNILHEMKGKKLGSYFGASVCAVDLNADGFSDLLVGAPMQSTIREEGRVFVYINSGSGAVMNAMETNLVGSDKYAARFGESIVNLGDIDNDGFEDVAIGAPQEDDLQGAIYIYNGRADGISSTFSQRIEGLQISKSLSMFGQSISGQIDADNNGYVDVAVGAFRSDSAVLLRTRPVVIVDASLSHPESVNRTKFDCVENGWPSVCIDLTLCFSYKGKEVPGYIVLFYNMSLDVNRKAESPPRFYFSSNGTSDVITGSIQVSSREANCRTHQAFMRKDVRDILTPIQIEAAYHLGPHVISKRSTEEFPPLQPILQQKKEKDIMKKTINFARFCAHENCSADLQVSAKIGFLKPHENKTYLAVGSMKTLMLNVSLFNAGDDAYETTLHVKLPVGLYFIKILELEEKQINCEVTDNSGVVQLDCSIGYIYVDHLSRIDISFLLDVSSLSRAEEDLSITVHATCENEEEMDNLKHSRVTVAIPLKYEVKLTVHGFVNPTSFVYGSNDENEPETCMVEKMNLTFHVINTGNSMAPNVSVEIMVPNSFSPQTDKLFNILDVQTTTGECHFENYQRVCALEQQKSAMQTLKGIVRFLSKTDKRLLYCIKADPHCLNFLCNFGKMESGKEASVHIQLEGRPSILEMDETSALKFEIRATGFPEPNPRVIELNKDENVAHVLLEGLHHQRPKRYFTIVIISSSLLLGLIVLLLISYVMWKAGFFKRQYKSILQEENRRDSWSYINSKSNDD
T1 sequence (P05556 21-798): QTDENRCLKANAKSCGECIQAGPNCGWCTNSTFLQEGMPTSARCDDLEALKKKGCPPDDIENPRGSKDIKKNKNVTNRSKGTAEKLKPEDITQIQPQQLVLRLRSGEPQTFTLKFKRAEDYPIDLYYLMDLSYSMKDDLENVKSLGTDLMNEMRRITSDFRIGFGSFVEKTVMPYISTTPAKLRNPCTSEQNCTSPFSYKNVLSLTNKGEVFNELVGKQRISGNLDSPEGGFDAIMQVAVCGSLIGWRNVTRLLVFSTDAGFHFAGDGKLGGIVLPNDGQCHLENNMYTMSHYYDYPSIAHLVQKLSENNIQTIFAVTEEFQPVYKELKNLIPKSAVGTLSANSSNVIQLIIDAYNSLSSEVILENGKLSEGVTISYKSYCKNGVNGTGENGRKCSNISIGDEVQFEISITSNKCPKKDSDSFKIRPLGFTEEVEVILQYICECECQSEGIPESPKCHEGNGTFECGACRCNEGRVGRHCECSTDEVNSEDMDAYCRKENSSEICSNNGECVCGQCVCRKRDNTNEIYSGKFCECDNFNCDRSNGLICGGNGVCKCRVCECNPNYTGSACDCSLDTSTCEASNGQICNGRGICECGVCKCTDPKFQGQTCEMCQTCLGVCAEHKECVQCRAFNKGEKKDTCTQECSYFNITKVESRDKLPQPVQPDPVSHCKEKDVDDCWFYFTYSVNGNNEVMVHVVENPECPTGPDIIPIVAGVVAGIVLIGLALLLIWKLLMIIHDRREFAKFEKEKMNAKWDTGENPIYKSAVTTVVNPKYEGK

Row | Substance | concentration of peptide found to significantly inhibit the binding of α4 β1 integrin to VCAM-1
1 | Cys-Trp-Leu-Asp-Leu-Cys-acid (CWLDLC-OH; disulfide 1-6; not fully specified (N-terminus, bridges); printed as Cys-Trp-Leu-Asp-Leu-Cys-acid) [SEQ ID NO:28] | less than 10 μM
2 | Cys-Trp-Leu-Asp-Tyr-Cys-acid (CWLDYC-OH; disulfide 1-6; not fully specified (N-terminus, bridges); printed as Cys-Trp-Leu-Asp-Tyr-Cys-acid) [SEQ ID NO:29] | less than 10 μM

From US6087330A, “Process to inhibit binding of the integrin α4 β1 to VCAM-1 or fibronectin and cyclic peptides therefor” (Texas Biotechnology Corporation, priority 1998, dated 2000)
